In patent US20210330736A1 (UNIVERSITEIT VAN AMSTERDAM, priority 2018, published 2021):
Bridges are numbered along the chain shown (N, C = ends). Where no end group is shown, it is not given here.

Key:
[1] = system: PDE7; conditions: cited from earlier work
[2] = target: GUCY2C (Homo sapiens, UniProt P25092); assay: Th Ser40 phosphorylation in HEK cells co-transfected with Th and GUCY2C (western blot); type: cell-based; design: expressed in transfected cells; host or cells: HEK cells (ATCC), calcium-phosphate transfection, co-transfected with mouse Th; conditions: guanylin 10 μM, uroguanylin 1 μM, IBMX 100 μM, 1 hour
GUCY2C, sequence (P25092 24-1073): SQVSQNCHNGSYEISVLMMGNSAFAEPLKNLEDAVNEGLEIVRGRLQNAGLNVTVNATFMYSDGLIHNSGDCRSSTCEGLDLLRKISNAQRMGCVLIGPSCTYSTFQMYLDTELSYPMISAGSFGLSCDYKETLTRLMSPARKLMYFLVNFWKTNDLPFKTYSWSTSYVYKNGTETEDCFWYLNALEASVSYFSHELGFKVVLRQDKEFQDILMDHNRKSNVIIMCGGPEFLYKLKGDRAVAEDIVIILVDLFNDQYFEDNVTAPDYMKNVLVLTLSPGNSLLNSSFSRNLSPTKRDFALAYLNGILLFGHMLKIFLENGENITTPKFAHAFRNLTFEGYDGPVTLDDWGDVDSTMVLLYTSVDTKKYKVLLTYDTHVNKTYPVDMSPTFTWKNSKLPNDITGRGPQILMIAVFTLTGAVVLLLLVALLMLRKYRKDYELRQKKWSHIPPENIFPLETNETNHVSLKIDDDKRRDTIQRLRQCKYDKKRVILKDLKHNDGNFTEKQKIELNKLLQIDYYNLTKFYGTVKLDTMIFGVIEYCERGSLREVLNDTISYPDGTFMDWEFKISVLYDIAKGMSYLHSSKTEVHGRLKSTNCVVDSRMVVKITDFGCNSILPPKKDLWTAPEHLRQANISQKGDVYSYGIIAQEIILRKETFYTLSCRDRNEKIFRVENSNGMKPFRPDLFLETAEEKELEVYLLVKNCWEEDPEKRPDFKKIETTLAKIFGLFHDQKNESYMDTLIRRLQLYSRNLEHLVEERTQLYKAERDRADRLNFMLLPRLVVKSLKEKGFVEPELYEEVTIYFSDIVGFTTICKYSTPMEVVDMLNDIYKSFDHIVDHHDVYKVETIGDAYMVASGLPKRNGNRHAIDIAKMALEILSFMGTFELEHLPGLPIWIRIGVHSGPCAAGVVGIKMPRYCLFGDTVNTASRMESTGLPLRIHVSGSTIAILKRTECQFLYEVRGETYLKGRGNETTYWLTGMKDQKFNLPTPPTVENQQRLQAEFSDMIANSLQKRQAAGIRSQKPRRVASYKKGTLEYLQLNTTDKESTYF
Description: FIG. 4. GUCY2C activation increases Ser40 phosphorylation. Immunocytochemistry images (A) and western blotting analysis (B) of HEK cultures transfected with Th or Th+GUCY2C. (C) Co-transfected HEK cells were treated with guanylin (G) or uroguanylin (UroG) and changes in Ser40 phosphorylation were studied. The graph represents the statistical analysis (n=3 for Control, n=6 for Guanylin, n=9 for Uroguanylin; Mean±SEM). Unpaired Student's t-test (p-value: **<0.01).
FIG. 5. […] (A) HEK cultures were treated with guanylin, in the presence or absence of IBMX. […] Unpaired Student's t-test (p-values: ****<0.0001, **<0.01, *<0.05). (B) HEK cells were co-transfected with Th and either the wt GUCY2C or a gain-of-function mutant (R792S). Ser40 phosphorylation was studied following guanylin treatment (G). […] Unpaired Student's t-test (p-values: ***<0.001, **<0.01).
HEK cells were maintained in 100-mm Petri dishes and grown in DMEM medium supplemented with L-glutamine, penicillin-streptomycin (Pen&Strep) and 10% heat-inactivated fetal bovine serum (HIFBS). Growing conditions were 37° C. and 5% CO2. For every-other-day passages, HEK cultures were split at a 1:3 dilution. From Friday to Monday, the split proportion was doubled for all cell lines. For passaging, cultures were rinsed with PBS and incubated with 1 mL of trypsin during 5 minutes. Cells were resuspended in growth medium and finally split to the proper dilution. The experiments were performed in 12-well plates. For immunocytochemistry analysis, sterile 18-mm coverslips were added prior to the plating. 500 !μL of cell resuspension was seeded in each well. If experiments were to be performed 48 hours after the plate preparation, 1:5 was the seeding ratio for HEK cells. When the experiments took place 96 hours post-plating, 1:7 was the working dilution for HEK cells. Unless otherwise stated, HEK cultures were processed 96 hours post-plating.
HEK cells were transfected using the calcium-phosphate method. 12-well plates were refreshed with 500 μL of growth medium before transfection. […]

[3] = target: GUCY2C R792S gain-of-function mutant (human) (UniProt P25092)
[4] = target: mouse GUCY2C (endogenous, in mouse striatal slices) (mouse, UniProt Q3UWA6); assay: cell-based or functional assay

Row | Molecule | P-Ser40 levels / Ser40 phosphorylation (in words) [2] | P-S40 TH/TTH, fold change (average), mouse striatal slices, 10 µM, 1 h (WES) [4] | further results
1 | OCCN(CCO)c1nc(N2CCCCC2)c2nc(N(CCO)CCO)nc(N3CCCCC3)c2n1 [Dipyridamole] | – | – | IC50 [1]: 600 nM
2 | CC(C)Cn1c(=O)n(C)c(=O)c2[nH]cnc21 [IBMX, 3-isobutyl-1-methylxanthine] | potentiated the increase in Ser40 phosphorylation | – | –
3 | guanylin (Example 1) (ligand) | – | – | Ser40 phosphorylation of Th upon guanylin treatment (western blot) (fold higher than with the wt receptor) [3]: 1.5
4 | uroguanylin: natural agonistic ligand of GUCY2C, 16 amino acid peptide (NDDCELCVNVACTGCL; disulfide 4-12, 7-15; UniProt Q16661 97-112, looked up) | increase P-Ser40 levels | – | –
5 | H-NDDCELCVNVACTGC-OH (disulfide 4-12, 7-15; SMILES CC(C)C[C@@H]1NC(=O)[C@H](CCC(=O)O)NC(=O)[C@@H](NC(=O)[C@H](CC(=O)O)NC(=O)[C@H](CC(=O)O)NC(=O)[C@@H](N)CC(N)=O)CSSC[C@@H]2NC(=O)[C@H](C)NC(=O)[C@H](C(C)C)NC(=O)[C@H](CC(N)=O)NC(=O)[C@H](C(C)C)NC(=O)[C@H](CSSC[C@@H](C(=O)O)NC(=O)CNC(=O)[C@H]([C@@H](C)O)NC2=O)NC1=O) [peptide 3] | – | 1.2 fold change (average) | –
6 | H-NDDCELCVNVACTGCL-OH (disulfide 4-12, 7-15; SMILES CC(C)C[C@H](NC(=O)[C@@H]1CSSC[C@@H]2NC(=O)[C@H](CC(C)C)NC(=O)[C@H](CCC(=O)O)NC(=O)[C@@H](NC(=O)[C@H](CC(=O)O)NC(=O)[C@H](CC(=O)O)NC(=O)[C@@H](N)CC(N)=O)CSSC[C@H](NC(=O)[C@H](C)NC(=O)[C@H](C(C)C)NC(=O)[C@H](CC(N)=O)NC(=O)[C@H](C(C)C)NC2=O)C(=O)N[C@@H]([C@@H](C)O)C(=O)NCC(=O)N1)C(=O)O) [peptide 1] | – | 1.11 fold change (average) | –
